According to the Human Domainome abundance scans (Beltran et al. 2025):
± gives the uncertainty stated by the source.

B1: Androgen receptor, residues 557 to 632; numbered along this chain, P10275 (parent)
chain: QKTCLICGDEASGCHYGALTCGSCKVFFKRAAEGKQKYLCASRNDCTIDKFRRKNCPSCRLRKCYEAGMTLGARKL

Variants of: B1
Assay: abundance fitness (aPCA) (normalised: wild type 0, dead -1); higher = more abundant; growth selection in yeast, the domain comes from the species named
Settings: Homo sapiens

Variant	abundance fitness
A41Q	-0.081 ± 0.084
A41H	-0.279 ± 0.078
A41C	-0.18 ± 0.13
A41D	0.041 ± 0.081
A41T	-0.056 ± 0.078
A41Y	0.044 ± 0.081
A41M	-0.186 ± 0.1
A41K	-0.368 ± 0.16
L71M	0.115 ± 0.078
L71T	0.073 ± 0.059
L71K	0.041 ± 0.1
L71F	0.103 ± 0.073
A18Y	-0.776 ± 0.13
A18C	-0.084 ± 0.047
A18D	-0.232 ± 0.073
A18H	-0.799 ± 0.15
A18V	-0.04 ± 0.033
C46E	-0.542 ± 0.1
C46W	-0.878 ± 0.095
C46F	-0.912 ± 0.12
C46S	-0.843 ± 0.081
C46D	-0.495 ± 0.21
C46M	-0.914 ± 0.11
C56D	-0.663 ± 0.22

Variant	abundance fitness
C56M	-0.662 ± 0.24
C56Q	-1.01 ± 0.32
C56R	-1.02 ± 0.21
C56P	-0.812 ± 0.22
C7W	-0.79 ± 0.47
C7L	-0.886 ± 0.2
C7T	-0.819 ± 0.47
C7V	-1.2 ± 0.34
C7Y	-0.583 ± 0.4
A73Q	-0.138 ± 0.1
A73V	-0.054 ± 0.067
A73Y	-0.166 ± 0.22
A73M	-0.18 ± 0.12
A73N	-0.047 ± 0.17
G72C	-0.075 ± 0.13
G72W	-0.076 ± 0.12
G72N	-0.136 ± 0.13
G72H	-0.046 ± 0.15
G72E	0.126 ± 0.088
A32M	-0.019 ± 0.068
A32T	0.114 ± 0.05
A32L	-0.167 ± 0.046
A32G	-0.001 ± 0.048
A32I	-0.011 ± 0.061

Variant	abundance fitness
A32Q	0.034 ± 0.058
A32E	0.036 ± 0.089
A32W	-0.088 ± 0.061
Q36I	-0.197 ± 0.067
Q36Y	-0.189 ± 0.064
Q36R	-0.144 ± 0.051
Q36T	-0.173 ± 0.064
Q36C	-0.2 ± 0.091
Q36D	0.048 ± 0.074
Q36L	-0.075 ± 0.036
Q36S	-0.094 ± 0.041
N44T	-0.159 ± 0.068
N44K	-0.177 ± 0.099
N44A	-0.064 ± 0.045
N44V	-0.343 ± 0.068
Q1S	-0.058 ± 0.082
Q1W	-0.032 ± 0.084
Q1K	0.076 ± 0.079
Q1P	-0.439 ± 0.23
Q1M	0.007 ± 0.1
Q1Y	0.172 ± 0.18
Q1N	-0.053 ± 0.36
Q1V	0.06 ± 0.12
L39E	0.054 ± 0.036

Variant	abundance fitness
L39Y	0.045 ± 0.046
L39P	-0.086 ± 0.038
L39G	-0.009 ± 0.03
L39H	-0.033 ± 0.041
L39N	-0.008 ± 0.038
L39C	-0.069 ± 0.053
L39M	0.047 ± 0.045
L39T	-0.032 ± 0.035
L39D	-0.068 ± 0.047
D49A	-0.283 ± 0.088
D49R	-0.342 ± 0.081
D49P	-0.482 ± 0.17
D49G	-0.197 ± 0.073
D49Y	-0.634 ± 0.21
D49T	-0.165 ± 0.11
D49W	-0.402 ± 0.099
D49C	-0.538 ± 0.27
K63I	-0.146 ± 0.095
K63V	-0.142 ± 0.066
K63H	-0.423 ± 0.1
K63S	-0.227 ± 0.07
K63F	-0.347 ± 0.12
K50Q	-0.075 ± 0.11
K50W	-0.227 ± 0.099

Variant	abundance fitness
K50E	-0.124 ± 0.1
K50Y	-0.124 ± 0.26
K50M	-0.195 ± 0.13
K50I	-0.26 ± 0.3
K50L	-0.027 ± 0.069
K50H	-0.087 ± 0.31
S12Q	0.049 ± 0.095
S12G	-0.056 ± 0.041
S12Y	-0.031 ± 0.11
S12V	-0.025 ± 0.052
S12M	-0.026 ± 0.086
S12H	-0.237 ± 0.17
S12L	0.055 ± 0.074
S12K	-0.054 ± 0.061
L5W	-0.122 ± 0.065
L5K	-0.053 ± 0.06
L5E	-0.071 ± 0.062
L5I	-0.04 ± 0.052
L5F	-0.078 ± 0.052
L5S	-0.013 ± 0.044
L5D	-0.065 ± 0.061
L5Y	-0.162 ± 0.049
L5M	-0.212 ± 0.083
I6M	-0.811 ± 0.24

Variant	abundance fitness
I6Q	-0.459 ± 0.26
I6T	-0.256 ± 0.11
I6D	-0.646 ± 0.24
I6R	-0.525 ± 0.11
G22W	-0.034 ± 0.052
G22F	-0.322 ± 0.053
G22T	-0.06 ± 0.063
G22P	-0.026 ± 0.071
G22V	-0.141 ± 0.042
A31P	-0.519 ± 0.17
A31L	-0.225 ± 0.053
A31Y	0.086 ± 0.067
A31F	-0.214 ± 0.12
A31G	-0.086 ± 0.045
A31V	-0.128 ± 0.056
A31D	-0.503 ± 0.15
C24H	-0.891 ± 0.095
C24N	-0.904 ± 0.094
C24A	-0.96 ± 0.055
C24P	-0.853 ± 0.069
P57K	-0.043 ± 0.11
P57W	0 ± 0.13
P57Y	-0.03 ± 0.051
P57D	0.1 ± 0.069

Variant	abundance fitness
P57I	-0.167 ± 0.087
P57Q	-0.095 ± 0.078
I48P	-0.25 ± 0.041
I48D	-0.331 ± 0.059
I48W	-0.37 ± 0.041
I48S	-0.251 ± 0.032
I48V	-0.02 ± 0.032
I48Q	-0.203 ± 0.047
C4Y	-0.884 ± 0.4
C4E	-0.563 ± 0.16
C4G	-0.61 ± 0.099
K37P	0.006 ± 0.088
K37S	-0.086 ± 0.062
K37N	0.073 ± 0.15
K37A	0.038 ± 0.045
K37W	-0.168 ± 0.071
K37G	-0.08 ± 0.039
V26E	0.014 ± 0.071
V26W	-0.181 ± 0.037
V26R	0.019 ± 0.026
V26P	-0.772 ± 0.13
V26Q	0.007 ± 0.05
V26F	-0.13 ± 0.058
R52G	-0.001 ± 0.069

Variant	abundance fitness
R52M	-0.067 ± 0.12
R52A	-0.157 ± 0.08
R52D	0.047 ± 0.092
R52F	-0.164 ± 0.076
R52P	0.004 ± 0.063
R52C	-0.087 ± 0.095
R52I	-0.042 ± 0.067
S23D	-0.069 ± 0.069
S23F	-0.11 ± 0.084
S23E	-0.013 ± 0.034
S23M	-0.137 ± 0.035
S23K	-0.142 ± 0.039
K25C	0.012 ± 0.027
K25S	0.03 ± 0.022
K25L	-0.099 ± 0.021
K25M	0.013 ± 0.027
K25R	-0.066 ± 0.021
K25I	-0.24 ± 0.033
K25F	-0.062 ± 0.029
K25W	-0.077 ± 0.025
K35R	0.004 ± 0.045
K35H	-0.044 ± 0.075
K35W	-0.213 ± 0.082
K35M	0.018 ± 0.07

Variant	abundance fitness
K35N	-0.093 ± 0.064
K35G	-0.031 ± 0.039
K35S	-0.031 ± 0.044
K35L	-0.135 ± 0.044
K35A	-0.093 ± 0.052
Y65W	-0.044 ± 0.11
Y65R	-0.117 ± 0.049
Y65M	-0.093 ± 0.09
Y65H	-0.1 ± 0.18
Y65I	-0.081 ± 0.24
Y65G	-0.218 ± 0.064
Y65N	-0.062 ± 0.12
Y65T	-0.276 ± 0.1
Y65L	-0.081 ± 0.073
H15N	-0.157 ± 0.088
H15W	0.097 ± 0.062
H15K	-0.106 ± 0.097
H15I	-0.063 ± 0.2
H15E	0.099 ± 0.08
H15C	-0.037 ± 0.11
H15T	0.045 ± 0.1
H15P	-0.27 ± 0.13
T20W	-0.637 ± 0.084
T20Q	-0.856 ± 0.12

Variant	abundance fitness
T20A	-0.041 ± 0.035
T20I	-0.035 ± 0.22
D45K	0.101 ± 0.12
D45M	-0.206 ± 0.15
D45S	-0.275 ± 0.13
D45L	-0.177 ± 0.075
D45T	-0.091 ± 0.1
D45Q	0.176 ± 0.13
D45C	-0.325 ± 0.21
D45P	-0.221 ± 0.29
D45E	-0.037 ± 0.082
R74K	-0.263 ± 0.27
R74N	-0.044 ± 0.1
R74C	0.06 ± 0.082
R74F	-0.165 ± 0.15
R74M	-0.056 ± 0.1
R74V	-0.063 ± 0.068
T47C	-0.077 ± 0.035
T47N	-0.067 ± 0.053
T47H	-0.026 ± 0.035
T47D	-0.017 ± 0.047
T47E	-0.059 ± 0.041
Y16P	-0.455 ± 0.052
Y16S	-0.408 ± 0.038

Variant	abundance fitness
Y16L	-0.275 ± 0.032
Y16M	-0.11 ± 0.041
Y16A	-0.397 ± 0.035
L19W	0.029 ± 0.091
L19V	-0.035 ± 0.047
L19S	-0.109 ± 0.051
L19D	-0.048 ± 0.063
N55E	-0.407 ± 0.29
N55D	0.032 ± 0.078
N55G	-0.073 ± 0.11
N55W	-0.421 ± 0.28
N55H	-0.011 ± 0.059
N55Y	-0.067 ± 0.063
N55I	-0.075 ± 0.073
N55R	-0.06 ± 0.068
D9K	-0.53 ± 0.17
D9Q	-0.071 ± 0.14
D9G	-0.182 ± 0.049
R30P	-0.395 ± 0.098
R30D	-0.066 ± 0.11
R30A	-0.094 ± 0.093
R30E	0.019 ± 0.14
R30N	0.014 ± 0.069
R30Y	-0.191 ± 0.063

Variant	abundance fitness
G13I	-0.416 ± 0.28
G13S	-0.034 ± 0.074
G13N	-0.201 ± 0.13
G13C	-0.311 ± 0.24
C14M	-0.087 ± 0.11
C14Q	-0.133 ± 0.092
C14I	0.085 ± 0.089
C14R	-0.142 ± 0.055
C14A	-0.013 ± 0.07
E33L	-0.173 ± 0.046
E33T	-0.058 ± 0.051
E33W	-0.25 ± 0.082
E33M	0.014 ± 0.065
E33Q	0.023 ± 0.075
E33K	0.013 ± 0.075
E33H	-0.153 ± 0.086
E33P	-0.135 ± 0.066
G17W	-0.645 ± 0.065
G17S	-0.319 ± 0.05
C21A	-0.732 ± 0.1
C21K	-0.988 ± 0.17
C21H	-0.602 ± 0.15
C21T	-0.81 ± 0.095
C21S	-1.05 ± 0.15

Variant	abundance fitness
C21I	-0.777 ± 0.11
C21L	-0.993 ± 0.16
T3C	0.014 ± 0.13
T3P	-0.229 ± 0.12
T3Q	-0.04 ± 0.097
T3I	0.009 ± 0.23
T3H	-0.225 ± 0.2
T3D	-0.171 ± 0.084
S58W	-0.458 ± 0.16
S58L	-0.251 ± 0.059
S58N	-0.189 ± 0.062
S58Y	-0.202 ± 0.064
S58H	-0.112 ± 0.061
S58D	-0.029 ± 0.074
F27D	-0.519 ± 0.085
F27H	-0.805 ± 0.15
F27Q	-0.839 ± 0.093
Y38N	-0.245 ± 0.094
Y38H	-0.231 ± 0.095
Y38F	-0.097 ± 0.093
Y38R	-0.239 ± 0.058
K29Y	-0.148 ± 0.14
K29D	-0.258 ± 0.2
K29R	-0.075 ± 0.057

Variant	abundance fitness
K29C	-0.49 ± 0.28
K29S	-0.248 ± 0.11
K29I	-0.353 ± 0.099
K29G	-0.039 ± 0.068
C40D	-1.14 ± 0.25
C40W	-1.16 ± 0.2
C40K	-0.632 ± 0.26
C40E	-0.576 ± 0.25
C40R	-0.798 ± 0.13
C40V	-0.693 ± 0.096
C40Q	-0.482 ± 0.15
C64R	-1.06 ± 0.32
C64L	-0.592 ± 0.16
C64A	-0.306 ± 0.096
C64V	-0.879 ± 0.27
C64N	-0.505 ± 0.45
C64T	-0.553 ± 0.2
C64K	-0.805 ± 0.29
G8T	-0.31 ± 0.11
G8Q	-0.463 ± 0.17
G8W	-0.529 ± 0.12
G8R	-0.43 ± 0.07
